Source: patent US20050118674A1, “Engineering of Controlled Deamidation Rates in Peptides, Proteins, and Similar Structures” (priority 2003, published 2005)
Where no end group is shown, it is not given here.

Assay: First-order nonenzymatic deamidation of pentapeptides in Tris buffer
Format: physicochemical
Settings: pH 7.4, 37.0° C., 0.15 M Tris HCl; Asn pentapeptides
Procedure, shortened: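 First-order deamidation rates determined for XxxAsnYyy and XxxGlnYyy pentapeptides in 0.15 M Tris buffer, pH 7.4, 37° C. Not all values were measured directly: several Asn rates were estimated and most Gln rates came from surface fitting.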

| Substance | First-Order Deamidation Halftimes of GlyXxxAsnYyyGly |
| --- | --- |
| GlyGlyAsnSerGly (GGNSG; printed: GlyGlyAsnSerGly) | 11.8 days |
| GlyAlaAsnValGly (GANVG; printed: GlyAlaAsnValGly) | 254 days |
| GlyGlyAsnArgGly (GGNRG; printed: GlyGlyAsnArgGly) | 57.8 days |
| GlyTyrAsnThrGly (GYNTG; printed: GlyTyrAsnThrGly) | 38.1 days |
| GlySerAsnSerGly (GSNSG; printed: GlySerAsnSerGly) | 15.1 days |
| GlyCysAsnLysGly (GCNKG; printed: GlyCysAsnLysGly) | 46.6 days |
| GlySerAsnAmCysGly | 41.3 days |
| GlyTrpAsnAlaGly (GWNAG; printed: GlyTrpAsnAlaGly) | 30.7 days |
| GlyMetAsnLysGly (GMNKG; printed: GlyMetAsnLysGly) | 60.4 days |
| GlyAmCysAsnTyrGly (CNYG; not fully specified (N-terminus); printed as GlyAmCysAsnTyrGly; also: glycinamide shown before Cys, linkage not given here) | 78.8 days |
| GlyPheAsnThrGly (GFNTG; printed: GlyPheAsnThrGly) | 39.0 days |
| GlyAmCysAsnMetGly (CNMG; not fully specified (N-terminus); printed as GlyAmCysAsnMetGly) | 56.5 days |
| GlyAspAsnIleGly (GDNIG; printed: GlyAspAsnIleGly) | 298 days |
| GlyCysAsnProGly (GCNPG; printed: GlyCysAsnProGly) | 1550 days |

Same assay, conditions: pH 7.4, 37.0 ° C., 0.15 M Tris HCl; Gln pentapeptides; 52 values measured, rest derived from surface fitting

| Substance | First-Order Deamidation Halftimes of GlyXxxGlnYyyGly |
| --- | --- |
| GlyPheGlnArgGly (GFQRG; printed: GlyPheGlnArgGly) | 7200 days |
| GlyTyrGlnHisGly (GYQHG; printed: GlyTyrGlnHisGly) | 7400 days |
| GlyIleGlnThrGly (GIQTG; printed: GlyIleGlnThrGly) | 5300 days |
| GlyAspGlnAspGly (GDQDG; printed: GlyAspGlnAspGly) | 8400 days |
| GlyProGlnThrGly (GPQTG; printed: GlyProGlnThrGly) | 4600 days |
| GlyGlyGlnAspGly (GGQDG; printed: GlyGlyGlnAspGly) | 7600 days |
| GlyGlyGlnGluGly (GGQEG; printed: GlyGlyGlnGluGly) | 7300 days |
| GlyGluGlnTyrGly (GEQYG; printed: GlyGluGlnTyrGly) | 13000 days |
| GlyIleGlnPheGly (GIQFG; printed: GlyIleGlnPheGly) | 8100 days |
| GlyArgGlnGluGly (GRQEG; printed: GlyArgGlnGluGly) | 5400 days |
| GlyTyrGlnProGly (GYQPG; printed: GlyTyrGlnProGly) | 11000 days |
| GlyMetGlnAlaGly (GMQAG; printed: GlyMetGlnAlaGly) | 4400 days |
| GlyHisGlnLeuGly (GHQLG; printed: GlyHisGlnLeuGly) | 6600 days |
| GlyIleGlnCysGly (GIQCG; printed: GlyIleGlnCysGly) | 2000 days |
| GlyTyrGlnMetGly (GYQMG; printed: GlyTyrGlnMetGly) | 5300 days |
| GlyPheGlnLysGly (GFQKG; printed: GlyPheGlnLysGly) | 6200 days |
| GlyArgGlnProGly (GRQPG; printed: GlyArgGlnProGly) | 8100 days |
